{"source": "patent US8367368B2", "about": "“D-serine dehydratase and use thereof” (National University Corporation Nagoya University, priority 2006, dated 2013)", "molecules": {"B1": {"name": "novel D-serine dehydratase: protein of Saccharomyces cerevisiae, YGL196W (SEQ ID NO: 1), with D-serine dehydratase activity; recombinant, His-tagged, expressed in Escherichia coli (protein, listed as Saccharomyces cerevisiae)", "chain": "MSDVLSQYKGCSVRDLPTPNFVINEEKFDKNCTTMLNNVEKLSQECGVPIKFRAHVKTHKTAKGTLKQLGHGLPLAKRTTRAILVSTLKEAEELLNYQDRQCSDYIDDITYSLPCCVPEFIPLLSNLSRRVNNFQVFVDNIEHLENLKNFGRPASGKKWSVFIKVDMGTKRAGLAFDSPEFLSLLKKLTSSEIKEVIEPYGFYAHAGHSYSSTSINDTQNLLMEEVKAVNSAAKVLCSVDPQFDPSKLTLSVGATPTSNSLKLDNKSTLVKFITTQLVSTLEIHCGNYCMYDLQQVATGCVQDHELSGFVLGTVLSSYPSRGELLSNTGVMCLTREASSIKGFGICADLEHVLKSESFSREWYVARVSQEHGILRPIRNWNETTPLKLGSKIAVLPQHACITMGQFPYYFVVNSEGIVNDVWLPFQKW", "modifications": "His tag", "notes": "recombinant, His-tagged, expressed in Escherichia coli"}}, "type_in_all_cases": "biochemical", "key": {"[1]": {"target": "T1, novel D-serine dehydratase (Saccharomyces cerevisiae, UniProt P53095)", "T1 construct": "made in house; host or cells: Escherichia coli BL21 (DE3)", "T1 sequence (P53095 1-428)": "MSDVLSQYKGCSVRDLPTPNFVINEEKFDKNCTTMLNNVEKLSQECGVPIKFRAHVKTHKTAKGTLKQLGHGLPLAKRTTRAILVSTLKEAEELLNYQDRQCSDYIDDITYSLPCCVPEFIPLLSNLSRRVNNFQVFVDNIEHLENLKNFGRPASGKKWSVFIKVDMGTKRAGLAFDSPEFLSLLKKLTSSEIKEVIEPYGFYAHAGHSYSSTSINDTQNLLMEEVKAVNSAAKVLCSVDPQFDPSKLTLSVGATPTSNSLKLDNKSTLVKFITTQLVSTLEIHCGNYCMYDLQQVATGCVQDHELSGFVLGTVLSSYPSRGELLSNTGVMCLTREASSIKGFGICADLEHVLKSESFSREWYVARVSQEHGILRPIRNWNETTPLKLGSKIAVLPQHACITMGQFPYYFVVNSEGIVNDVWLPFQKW", "test": "Influence of metal ion and EDTA on enzymatic activity, Nessler method", "protocol": "(§1) To a reaction solution (final volume: 200 μl) containing 50 mM of HEPES-NaOH buffer (pH 8.0), […] of pyridoxal-5′-phosphate and 10 mM of D-serine, an appropriate amount of D-serine dehydratase was added and incubated at 30° C. Thereafter, trichloroacetic acid (final concentration: 5%) was added to stop the reaction. Ammonia in the centrifuged supernatant was quantified by using a Nessler reagent.\nThe influence and effect of metal ion on the activity of the novel enzyme were examined by the following method. The compounds shown in FIG. 5 were incubated with untreated novel enzyme and 2 mM EDTA, and then dialyzed with Tris buffer solution. The D-serine dehydratase activity of the novel enzyme was measured by a Nessler method in the presence of 0.05 mM or 0.5 mM of any of KCl, NaCl, MnCl2, MgCl2, CaCl2, NiSO4, CuSO4 and ZnCl2."}, "[2]": {"test": "D-serine dehydratase activity of the purified enzyme, Nessler method", "details": "10 mM D-serine, HEPES-NaOH pH 8.0, 30° C.", "protocol": "as §1, with “The activity of serine dehydratase was measured as follows: ammonia as a reaction product was measured by a Nessler method or pyruvic acid as a reaction product was measured by coupling with lactate dehydrogenase and by oxidation of NADH. Hereinafter, outline of each method is shown. To” for “To”"}, "[3]": {"test": "Substrate-specificity by the Nessler method, L-serine as substrate", "details": "same conditions as D-serine", "protocol": "(§2) To a reaction solution (final volume: 200 μl) containing 50 mM of HEPES-NaOH buffer (pH 8.0), […] of pyridoxal-5′-phosphate and 10 mM of D-serine, an appropriate amount of D-serine dehydratase was added and incubated at 30° C. Thereafter, trichloroacetic acid (final concentration: 5%) was added to stop the reaction. Ammonia in the centrifuged supernatant was quantified by using a Nessler reagent. The substrate-specificity of the novel enzyme was examined by the following method. That is to say, as the substrate, L-serine and D-threonine in addition to D-serine were prepared, and the reactivity of the enzyme with respect to each substrate was examined by the Nessler method. Note here that the reactivity of the enzyme with respect to L-serine or D-threonine was examined by the Nessler method in the same conditions as in the case of D-Serine except that L-serine (Wako Pure Chemical Industries, Ltd.) or D-threonine (Wako Pure Chemical Industries, Ltd.) was used as a substrate."}, "[4]": {"test": "Substrate-specificity by the Nessler method, D-threonine as substrate", "details": "same conditions as D-serine", "protocol": "as §2"}, "[5]": {"test": "Effect of pH on enzymatic activity, Nessler method", "details": "MOPS, MES, HEPES, Tris buffers", "protocol": "as §1\nThe relationship between the activity of the novel enzyme and pH at the reaction was examined by the following method. In the Nessler method, buffer solution was changed to MOPS (pH 6.5-8.0), MES (pH 6.0-6.5), HEPES (pH 7.0-8.5), and Tris (pH 7.5-9.0), respectively. By using the reaction solution, the D-serine dehydratase activity of the novel enzyme was measured."}, "[6]": {"test": "Dynamic characteristic (reciprocal plot of rate against D-serine concentration), Nessler method", "details": "substrate D-serine", "protocol": "as §1\nThe dynamic characteristic of the novel enzyme was examined by the following method. In the Nessler method, the concentration of D-serine was changed and the D-serine dehydratase activity of the novel enzyme in the respective concentrations of D-serine was measured. The inverse number of the obtained rate was plotted to the inverse number of the D-serine concentration. Then, the maximum rate was calculated from the inverse number of the y section and Km value was calculated from the inverse number of the x section."}}, "note": "“Also recorded” adds a separate entry of the source."}
{"molecule": "O=C(O)CN(CCN(CC(=O)O)CC(=O)O)CC(=O)O", "note": "[EDTA]", "values": [{"measurement": "effect of EDTA on enzymatic activity", "setting": "[1]; incubated with 2 mM EDTA, then dialyzed with Tris buffer", "result": "mostly deactivated; also recorded: inhibited"}]}
{"molecule": "[Cl-].[Cl-].[Zn+2]", "note": "[zinc, ZnCl2]", "values": [{"measurement": "effect of zinc on enzymatic activity", "setting": "[1]; addition of zinc to EDTA-treated enzyme, low concentration", "result": "activated"}, {"measurement": "zinc concentration at which the enzymatic activity was increased most", "setting": "[1]; same experiment while changing the zinc concentration", "result": 0.005, "unit": "mM"}]}
{"molecule": "B1", "values": [{"measurement": "specific activity", "setting": "[2]", "result": 3.7, "unit": "gmol/min/mg"}, {"measurement": "reactivity with respect to L-serine", "setting": "[3]", "result": "does not react with L-serine at all"}, {"measurement": "reactivity with respect to L-serine", "setting": "[3]; listed as novel enzyme", "result": "no reactivity"}, {"measurement": "reactivity to D-threonine when the reactivity to D-serine was 100%", "setting": "[4]", "result": 5, "unit": "%"}, {"measurement": "reactivity with respect to D-threonine", "setting": "[4]", "result": "extremely low"}, {"measurement": "reactivity with respect to D-threonine", "setting": "[4]; listed as novel enzyme", "result": "low reaction"}, {"measurement": "optimum pH", "setting": "[5]", "result": "around 8"}, {"measurement": "maximum rate", "setting": "[6]; Example text", "result": 4.2, "unit": "µmol/min/mg"}, {"measurement": "Vmax value", "setting": "[6]; FIG. 7 legend", "result": 4.2, "unit": "µmol/min/mg"}, {"measurement": "Km", "setting": "[6]; read-out: Km value with respect to D-serine", "result": 460, "unit": "µM"}]}
